# Reference: patent US20090075374A1, “METHODS OF GENERATING EPITHELIAL LINEAGE CELLS FROM EMBRYOID BODIES AND PLURIPOTENT CELLS” (priority 2007, published 2009)
# B1: Noggin: a BMP inhibitor (R&D Systems) (protein, UniProt Q13253 28-232, looked up)
# Noggin: QHYLHIRPAPSDNLPLVDLIEHPDPIFDPKEKDLNETLLRSLLGGHYDPGFMATSPPEDRPGGGGGAAGGAEDLAELDQLLRQRPSGAMPSEIKGLEFSEGLAQGKKQRLSKKLRRKLQMWLWSQTFCPVLYAWNDLGSRFWPRYVKVGSCFSKRSCSVPEGMVCKPSKSVHLTVLRWRCQRRGGQRCGWIPIQYPIISECKCSC
# B2: BMP-4: bone morphogenetic protein-4 (R&D Systems), growth factor of the TGF-β superfamily (protein, UniProt P12644 293-408, looked up)
# Bone morphogenetic protein 4: SPKHHSQRARKKNKNCRRHSLYVDFSDVGWNDWIVAPPGYQAFYCHGDCPFPLADHLNSTNHAIVQTLVNSVNSSIPKACCVPTELSAISMLYLDEYDKVVLKNYQEMVVEGCGCR
# Tests used:
# Type in all cases: cell-based, human
# undifferentiated hESCs = test: Concentration-dependent effect of RA: toxicity; conditions: higher concentrations (e.g., 10 μM)
# Method: In some experiments, K14-positive cells were generated from EBs.
# To study the concentration-dependent effect of RA, EBs were differentiated with varying RA concentrations for nine days and subsequently cultured on gelatin in DSFM for nineteen days. […] To study the temporal-dependent effect of RA, RA was added to the cultures at various stages of differentiation (e.g., either during EB induction or during adherent culture in DSFM). […] When exposed to RA, plated cells from control EBs were enriched in neural precursor populations, as confirmed by qPCR analysis.
# hESCs [1] = test: Direct differentiation of hESCs to K14-positive cells; conditions: for K14+ yield: subsequent culture in keratinocyte medium, RA+/− cultures
# Method: For immunohistochemistry, cells were fixed in 4% paraformaldehyde for 15 minutes at room temperature before blocking and permeabilizing with 5% milk in PBS with 0.4% Triton X-100.
# hESCs [2] = test: Direct differentiation of hESCs in N2 medium containing RA, BMP-4 or Noggin: epithelial and neuroectodermal transcripts; conditions: six days, BMP-4 inhibition in RA-treated samples
# Method: For semi-quantitative and quantitative PCR, RNA was harvested from cells using a RNeasy® Mini kit (Qiagen; Valencia, Calif.). cDNA was then generated using Omniscript® RT (Qiagen), 1 μg RNA and oligo-dT primers. For semi-quantitative analysis, PCR was conducted using Platinum® Taq (Invitrogen) with 1 μl cDNA for 30 or 35 cycles. For quantitative analysis, PCR was conducted using Quantitect® SYBR Green qPCR kit (Qiagen) with 1 μl cDNA on an iCycler (BioRad; Hercules, Calif.). Relative expression levels were calculated using the ΔCT method, normalizing to GAPDH transcription. Primers (Table 1) were designed to span intron or bound exon borders, and PCR products were verified by melt curve analysis and/or 2% agarose gel electrophoresis.
# BMP-4 synergized with RA in direct differentiation of hESCs to K14^+ cells. hESCs were directly differentiated in N2 medium containing RA, BMP-4 or Noggin (a BMP inhibitor). After differentiation for six days, RNA was analyzed for expression of epithelial and neuroectodermal transcripts. ΔNp63 was elevated in all RA-treated cell samples, regardless of status of BMP signaling.
Molecule,toxicity to undifferentiated hESCs (undifferentiated hESCs),"cells expressing K14 (hESCs [1]; after five weeks of differentiation, subculture in keratinocyte medium)",K14+ yield (hESCs [1]),effect on RA downregulation of neuroepithelial gene expression (hESCs [2])
"CC1=C(/C=C/C(C)=C/C=C/C(C)=C/C(=O)O)C(C)(C)CCC1 [RA, tretinoin (all-trans RA), reference compound]",appeared toxic,87%,,
B1,,,decreased,mitigated this effect
B2,,,only slightly affected,
